Reference: paper PMC10998906 (NPJ Vaccines, 2024)

Biological target: H5 GCN4 (IN05 HA, GCN4-trimerized) (Influenza A virus …, UniProt A5A5L7, stabilised)
Test: negative-stain EM
Conditions: both partners purified

B1: CR9114 Fab (Fab, V domains shown)
VH: QVQLVQSGAEVKKPGSSVKVSCKSSGGTSNNYAISWVRQAPGQGLDWMGGISPIFGSTAYAQKFQGRVTISADIFSNTAYMELNSLTSEDTAVYFCARHGNYYYYSGMDVWGQGTTVTVSS
VL: QSALTQPPAVSGTPGQRVTISCSGSDSNIGRRSVNWYQQFPGTAPKLLIYSNDQRPSVVPDRFSGSKSGTSASLAISGLQSEDEAEYYCAAWDDSLKGAVFGGGTQLTVL
stoichiometry N: 3 Fabs per trimer
